Laboratory results published in paper PMC10945814.

Molecular target: Abx(+)D, TcmI-like aromatase/cyclase of the (+)-anthrabenzoxocinone pathway (Actinomycetes sp. MA7150)
Experiment: crystal structure

- stoichiometry N: 2
Substance: Abx(+)D, TcmI-like aromatase/cyclase of the (+)-anthrabenzoxocinone pathway (enzyme)
